Reference: paper PMC10540216, “Activity Guided Azide-methyllysine Photo-trapping for Substrate Profiling of Lysine Demethylases” (Journal of the American Chemical Society, 2023)

B1: NU155_HUMAN (protein, UniProt O75694 2-1391, looked up)
Nuclear pore complex protein …: PSSLLGAAMPASTSAAALQEALENAGRLIDRQLQEDRMYPDLSELLMVSAPNNPTVSGMSDMDYPLQGPGLLSVPNLPEISSIRRVPLPPELVEQFGHMQCNCMMGVFPPISRAWLTIDSDIFMWNYEDGGDLAYFDGLSETILAVGLVKPKAGIFQPHVRHLLVLATPVDIVILGLSYANLQTGSGVLNDSLSGGMQLLPDPLYSLPTDNTYLLTITSTDNGRIFLAGKDGCLYEVAYQAEAGWFSQRCRKINHSKSSLSFLVPSLLQFTFSEDDPILQIAIDNSRNILYTRSEKGVIQVYDLGQDGQGMSRVASVSQNAIVSAAGNIARTIDRSVFKPIVQIAVIENSESLDCQLLAVTHAGVRLYFSTCPFRQPLARPNTLTLVHVRLPPGFSASSTVEKPSKVHRALYSKGILLMAASENEDNDILWCVNHDTFPFQKPMMETQMTAGVDGHSWALSAIDELKVDKIITPLNKDHIPITDSPVVVQQHMLPPKKFVLLSAQGSLMFHKLRPVDQLRHLLVSNVGGDGEEIERFFKLHQEDQACATCLILACSTAACDREVSAWATRAFFRYGGEAQMRFPTTLPPPSNVGPILGSPVYSSSPVPSGSPYPNPSFLGTPSHGIQPPAMSTPVCALGNPATQATNMSCVTGPEIVYSGKHNGICIYFSRIMGNIWDASLVVERIFKSGNREITAIESSVPCQLLESVLQELKGLQEFLDRNSQFAGGPLGNPNTTAKVQQRLIGFMRPENGNPQQMQQELQRKFHEAQLSEKISLQAIQQLVRKSYQALALWKLLCEHQFTIIVAELQKELQEQLKITTFKDLVIRDKELTGALIASLINCYIRDNAAVDGISLHLQDICPLLYSTDDAICSKANELLQRSRQVQNKTEKERMLRESLKEYQKISNQVDLSNVCAQYRQVRFYEGVVELSLTAAEKKDPQGLGLHFYKHGEPEEDIVGLQAFQERLNSYKCITDTLQELVNQSKAAPQSPSVPKKPGPPVLSSDPNMLSNEEAGHHFEQMLKLSQRSKDELFSIALYNWLIQVDLADKLLQVASPFLEPHLVRMAKVDQNRVRYMDLLWRYYEKNRSFSNAARVLSRLADMHSTEISLQQRLEYIARAILSAKSSTAISSIAADGEFLHELEEKMEVARIQLQIQETLQRQYSHHSSVQDAVSQLDSELMDITKLYGEFADPFKLAECKLAIIHCAGYSDPILVQTLWQDIIEKELSDSVTLSSSDRMHALSLKIVLLGKIYAGTPRFFPLDFIVQFLEQQVCTLNWDVGFVIQTMNEIGVPLPRLLEVYDQLFKSRDPFWNRMKKPLHLLDCIHVLLIRYVENPSQVLNCERRRFTNLCLDAVCGYLVELQSMSSSVAVQAITGNFKSLQAKLERLH
B2: PR40A_HUMAN (protein, UniProt O75400 1-957, looked up)
Pre-mRNA-processing factor 40 …: MRPGTGAERGGLMVSEMESHPPSQGPGDGERRLSGSSLCSGSWVSADGFLRRRPSMGHPGMHYAPMGMHPMGQRANMPPVPHGMMPQMMPPMGGPPMGQMPGMMSSVMPGMMMSHMSQASMQPALPPGVNSMDVAAGTASGAKSMWTEHKSPDGRTYYYNTETKQSTWEKPDDLKTPAEQLLSKCPWKEYKSDSGKPYYYNSQTKESRWAKPKELEDLEGYQNTIVAGSLITKSNLHAMIKAEESSKQEECTTTSTAPVPTTEIPTTMSTMAAAEAAAAVVAAAAAAAAAAAAANANASTSASNTVSGTVPVVPEPEVTSIVATVVDNENTVTISTEEQAQLTSTPAIQDQSVEVSSNTGEETSKQETVADFTPKKEEEESQPAKKTYTWNTKEEAKQAFKELLKEKRVPSNASWEQAMKMIINDPRYSALAKLSEKKQAFNAYKVQTEKEEKEEARSKYKEAKESFQRFLENHEKMTSTTRYKKAEQMFGEMEVWNAISERDRLEIYEDVLFFLSKKEKEQAKQLRKRNWEALKNILDNMANVTYSTTWSEAQQYLMDNPTFAEDEELQNMDKEDALICFEEHIRALEKEEEEEKQKSLLRERRRQRKNRESFQIFLDELHEHGQLHSMSSWMELYPTISSDIRFTNMLGQPGSTALDLFKFYVEDLKARYHDEKKIIKDILKDKGFVVEVNTTFEDFVAIISSTKRSTTLDAGNIKLAFNSLLEKAEAREREREKEEARKMKRKESAFKSMLKQAAPPIELDAVWEDIRERFVKEPAFEDITLESERKRIFKDFMHVLEHECQHHHSKNKKHSKKSKKHHRKRSRSRSGSDSDDDDSHSKKKRQRSESRSASEHSSSAESERSYKKSKKHKKKSKKRRHKSDSPESDAEREKDKKEKDRESEKDRTRQRSESKHKSPKKKTGKDSGNWDTSGSELSEGELEKRRRTLLEQLDDDQ
B3: SRRT_HUMAN (protein, UniProt Q9BXP5 2-876, looked up)
Serrate RNA effector molecule …: GDSDDEYDRRRRDKFRRERSDYDRSRERDERRRGDDWNDREWDRGRERRSRGEYRDYDRNRRERFSPPRHELSPPQKRMRRDWDEHSSDPYHSGYEMPYAGGGGGPTYGPPQPWGHPDVHIMQHHVLPIQARLGSIAEIDLGVPPPVMKTFKEFLLSLDDSVDETEAVKRYNDYKLDFRRQQMQDFFLAHKDEEWFRSKYHPDEVGKRRQEARGALQNRLRVFLSLMETGWFDNLLLDIDKADAIVKMLDAAVIKMEGGTENDLRILEQEEEEEQAGKPGEPSKKEEGRAGAGLGDGERKTNDKDEKKEDGKQAENDSSNDDKTKKSEGDGDKEEKKEDSEKEAKKSSKKRNRKHSGDDSFDEGSVSESESESESGQAEEEKEEAEEALKEKEKPKEEEWEKPKDAAGLECKPRPLHKTCSLFMRNIAPNISRAEIISLCKRYPGFMRVALSEPQPERRFFRRGWVTFDRSVNIKEICWNLQNIRLRECELSPGVNRDLTRRVRNINGITQHKQIVRNDIKLAAKLIHTLDDRTQLWASEPGTPPLPTSLPSQNPILKNITDYLIEEVSAEEEELLGSSGGAPPEEPPKEGNPAEINVERDEKLIKVLDKLLLYLRIVHSLDYYNTCEYPNEDEMPNRCGIIHVRGPMPPNRISHGEVLEWQKTFEEKLTPLLSVRESLSEEEAQKMGRKDPEQEVEKFVTSNTQELGKDKWLCPLSGKKFKGPEFVRKHIFNKHAEKIEEVKKEVAFFNNFLTDAKRPALPEIKPAQPPGPAQILPPGLTPGLPYPHQTPQGLMPYGQPRPPILGYGAGAVRPAVPTGGPPYPHAPYGAGRGNYDAFRGQGGYPGKPRNRMVRGDPRAIVEYRDLDAPDDVDFF

Tested on: KDM4A-I71AzF
Assay: CASI: photo-crosslinking with HEK293T cell extracts, StrepTactin enrichment and LC-MS/MS proteomics;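 note: lysates from HEK293T cells pretreated with a KDM4 inhibitor to raise proteome methylation, affinity-purified after ±UV, gel-resolved, trypsin-digested, with exclusive unique peptides per protein averaged per condition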
Type: binding, human
Conditions: sheet "Final results but with 0.01"

Molecule | Fold change (+UV/-UV)
B1 | 1.36
B2 | 0.5
B3 | 0.5385
